Data as given in patent publication US9617344B2, “Fusion protein comprising targeting moiety, cleavage site, and cell membrane penetrating domain, and use thereof” (Samsung Electronics Co., Ltd., priority 2014, dated 2017).
Blank lines part the entries; values can stand above or below the molecule they belong to.

How the values were obtained:
[1] = test system: A431 cells; test: Cell cycle arrest test (gene transfection, DNA content by FACS); type: cell-based; settings: gene transfected into A431 cells with Lipofectamine 2000; compared to p16WT; FIGS. 3 and 4
Procedure: A vector containing a gene encoding ‘p16M7’ or ‘p16WT’ (wild-type) was transfected into A431 cells (ATCC) by liposomal transfection method using Lipofectamine 2000 (Invitrogen) (see Example 1). The transfection was performed according to a manual provided by Invitrogen. 24 hours after the transfection, the medium was exchanged with a fresh medium. At 24 hours 48 hours thereafter, DNA contents were measured by FACS.
After transfecting the p16M7 gene or p16WT gene into cells using Lipo2000, the presence of cell cycle arrest was observed. […] For labeling, pEGFP-C2 vector (Clontech) for p16WT and p16M7 (indicated as “p16 Mut” in FIG. 3). […] FIG. 4 contains graphs quantitatively showing the degree of cell cycle arrest of FIG. 3, wherein “% frequency” of Y axis refers to a value of cell population obtained through Flow jo software, each symbol in X axis refers to the follows: C2-6: using EGFP only (6 ul), C2-10: using EGFP only (10 ul), Mut: using p16M7 (6 ul or 10 ul) and WT: using p16WT (6 ul or 10 ul).

[2] = test system: MDA-MB-231 xenograft; test: Anticancer effect in MDA-MB-231 xenograft mouse model; type: in vivo, BALB/c nude mouse; settings: 75 uM/0.1 ml/mouse administered to the tumor tissue once a day
Procedure: To examine the anticancer effect of the conjugate of Example 2, a xenograft mouse model was employed. The xenograft mouse model was prepared by an […] injection of intractable breast cancer cell line MDA-MB-231 into breast tissue of 6-week old BALB/c nude mouse to form a tumor tissue.
In particular, 8×10^6 cells (in 0.08 ml of PBS with matrigel) of MDA-MB-231 (ATCC) were […] of 6-week old BALB/c nude mouse to prepare a xenograft mouse model (Orthotopic mouse model). When the tumor size reaches […], the xenograft mouse model was used in the following experiment.
The obtained results are shown in FIG. 7, and the degree (%) of tumor size reduction (tumor growth inhibition; TGI) compared to the buffer administered group calculated from the results of FIG. 7 was shown in Table 4: […]

[3] = target: T1, EGFR present in A431 (Homo sapiens, UniProt P00533); test: Tumor cell targeting test (confocal imaging of protein binding to A431 cells); type: cell-based; settings: A431 cells treated with 7.5 or 15 ug/ml for one hour; fluorescent imaging, FIG. 2; positive control Erbitux
T1 construct: EGFR present in A431; host or cells: A431

B1: p16M7: Human p16 protein variant with seven substitutions for improved solubility (SEQ ID NO: 2) (protein)
chain: MEPAAGSSMEPSADKLATAAARGRVEEVRALLEAGADPNAPNSYGRRPIQVMMMGSARVAELLLKHGAEPNSADPATSTRPVHDAAREGFLDTLVVLHRAGARLDARDAWGRTPVDLAEELGHRDVARYLRAAAGGTRGSNHARIDAAEGPSDIPD
modifications: Synthetic Human p16 Variant
- cell cycle arrest effect [1]: maintaining the cell cycle arrest effect

B2: D(EGFR)-M9R-MTS-NLS-p16M7: Conjugate: anti-EGFR DARPin (SEQ ID NO: 7), MMP9 cleavage site M9R, MTS-NLS fusion peptide, p16 variant p16M7; SEQ ID NO: 35 (protein)
chain: DLGKKLLEAARAGQDDEVRILMANGADVNADDTWGWTPLHLAAYQGHLEIVEVLLKNGADVNAYDYIGWTPLHLAADGHLEIVEVLLKNGADVNASDYIGDTPLHLAAHNGHLEIVEVLLKHGADVNAQDKFGKTAFDISIDNGNEDLAEILQSGKIPRTLTAAAVALLPAVLLALLAPKKKRKMEPAAGSSMEPSADKLATAAARGRVEEVRALLEAGADPNAPNSYGRRPIQVMMMGSARVAELLLKHGAEPNSADPATSTRPVHDAAREGFLDTLVVLHRAGARLDARDAWGRTPVDLAEELGHRDVARYLRAAAGGTRGSNHARIDAAEGPSDIPD
modifications: Synthetic Conjugate (anti-EGFR DARPin-M9R- MTS-NLS-p16M7)
- increased anticancer effect compared to the control [Darpin(EGFR)] ([2]; versus D(EGFR) group): about 21.4%

B3: D(EGFR)-M9R-p16M7: Comparison conjugate lacking MTS-NLS: SEQ ID NO: 7-SEQ ID NO: 26-SEQ ID NO: 2 (protein)
chain: DLGKKLLEAARAGQDDEVRILMANGADVNADDTWGWTPLHLAAYQGHLEIVEVLLKNGADVNAYDYIGWTPLHLAADGHLEIVEVLLKNGADVNASDYIGDTPLHLAAHNGHLEIVEVLLKHGADVNAQDKFGKTAFDISIDNGNEDLAEILQSGKIPRTLTAMEPAAGSSMEPSADKLATAAARGRVEEVRALLEAGADPNAPNSYGRRPIQVMMMGSARVAELLLKHGAEPNSADPATSTRPVHDAAREGFLDTLVVLHRAGARLDARDAWGRTPVDLAEELGHRDVARYLRAAAGGTRGSNHARIDAAEGPSDIPD
modifications: Synthetic anti-EGFR DARPin-01; Synthetic MMP9 cleavage region; Synthetic Human p16 Variant
- degree (%) of tumor size reduction (tumor growth inhibition; TGI) compared to the buffer administered group ([2]; n=10, calculated from FIG. 7): 50.0%

- binding ability to EGFR present in A431 [3]: little binding ability
B4: Darpin: Negative control; Mock Darpin having no binding target; SEQ ID NO: 43 (protein)
chain: GSDLGKKLLEAARAGQDDEVRILMANGADVNAEDKVGLTPLHLAAMNDHLEIVEVLLKNGADVNAIDAIGETPLHLVAMYGHLEIVEVLLKHGADVNAQDKFGKTAFDISIDNGNEDLAEILQKLN
modifications: Synthetic Non-EGFR targeting DARPin
